T1: carcinoembryonic antigen (UniProt P06731 35-685)
T1 construct: Bought reagent (Biodesign); also called CEA
T1 sequence: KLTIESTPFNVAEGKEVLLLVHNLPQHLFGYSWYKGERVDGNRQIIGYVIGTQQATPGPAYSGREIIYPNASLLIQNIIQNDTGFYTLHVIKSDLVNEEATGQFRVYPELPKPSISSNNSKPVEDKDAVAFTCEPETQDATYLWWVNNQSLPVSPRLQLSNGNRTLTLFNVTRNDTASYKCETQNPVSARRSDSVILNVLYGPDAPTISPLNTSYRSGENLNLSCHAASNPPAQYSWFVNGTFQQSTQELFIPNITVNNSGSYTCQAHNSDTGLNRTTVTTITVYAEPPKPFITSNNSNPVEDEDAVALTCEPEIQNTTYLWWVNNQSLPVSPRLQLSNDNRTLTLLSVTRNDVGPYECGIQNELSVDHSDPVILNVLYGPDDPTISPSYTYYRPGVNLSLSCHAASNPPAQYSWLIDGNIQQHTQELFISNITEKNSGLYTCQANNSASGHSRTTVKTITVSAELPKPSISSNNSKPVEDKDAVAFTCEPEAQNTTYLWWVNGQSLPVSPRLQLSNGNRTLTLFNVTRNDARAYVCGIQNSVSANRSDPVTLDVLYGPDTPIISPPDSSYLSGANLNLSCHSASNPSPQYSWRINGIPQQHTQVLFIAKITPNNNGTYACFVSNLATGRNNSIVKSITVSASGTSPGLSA

B1: NA05.6 (scFv)
chain: QVKLQQSGAELVKSGGSVKLSCTASGFNIKDSYMHWLRQGPEQGLEWIGWIDPENGDTEYAPKFQGKATFTTDTSSNTAYLQLSSLTSEDTAVYYCNEGTPTGPYYFDYWGQGTTVTVSSGGGGSGGGGSGGGGSENVLTQSPAIMSASPGEKVTITCSASSSVSYMHWFQQKPGTSPKLVIYSTSNLASGVPARFSGSGSGTSYSLTISRMEAEDAATYYCQQRSSYPLTFGAGTKLELKRAATLVSEKQLAEVVANTITPLMKAQSVPGMAVAVIYQGKPHYYTFGKADIAANKPVTPQTLFELGSISKTFTGVLGGDAIARGEISLDDAVTRYWPQLTGKQWQGIRMLDLATYTAGGLPLQVPDEVTDNASLLRFYQNWQPQWKPGTTRLYANASIGLFGALAVKPSGMPYEQAMTTRVLKPLKLDHTWINVPKAEEAHYAWGYRDGKAVRVSPGMLDAQAYGVKTNVQDMANWVMANMAPENVADASLKQGIALAQSRYWRIGSMYQGLGWEMLNWPVEANTVVETSFGNVALAPLPVAEVNPPAPPVKASWVHKTGSTGGFGSYVAFIPEKQIGIVMLANTSYPNPARVEAAYHILEALQ
notes: Variant of the CAB1 scFv-BLA fusion (plasmid pME27.1), tested as crude E. coli lysate; also called pNA05.6; parent NA05.6
B2: NA05.8 (scFv)
chain: QVKLQQSGAELVKSGTSVKLSCTASGFNIKDSYMHWLRQGPEQGLEWIGWIDPENGDTEYAPKFQGKATFTTDTSSNTAYLQLSSLTSEDTAVYYCNEGTPTGPYYFDYWGQGTTVTVSSGGGGSGGGGSGGGGSENVLTQSPAIMSASPGEKVTITCSASSSVSYMHWYQQKPGTSPKLWIYSTSNLASGVPARFSGSGSGTSYSLTISRMEAEDAATYYCQQRSSYPLTFGGGTKLELKRAATLVSEKQLAEVVANTITPLMKAQSVPGMAVAVIYQGKPHYYTFGKADIAANKPVTPQTLFELGSISKTFTGVLGGDAIARGEISLDDAVTRYWPQLTGKQWQGIRMLDLATYTAGGLPLQVPDEVTDNASLLRFYQNWQPQWKPGTTRLYANASIGLFGALAVKPSGMPYEQAMTTRVLKPLKLDHTWINVPKAEEAHYAWGYRDGKAVRVSPGMLDAQAYGVKTNVQDMANWVMANMAPENVADASLKQGIALAQSRYWRIGSMYQGLGWEMLNWPVEANTVVETSFGNVALAPLPVAEVNPPAPPVKASWVHKTGSTGGFGSYVAFIPEKQIGIVMLANTSYPNPARVEAAYHILEALQ
notes: Variant of the CAB1 scFv-BLA fusion, tested as crude lysate; Positions are numbered along the whole CAB1 fusion (pME27)
B3: NA06.4 (scFv)
chain: QVKLQQSGAELVKSGGSVKLSCTASGFNIKDSYMHWVRQGPEQGLEWIGWIDPENGDTEYAPKFQGKATFTTDTSSNTAYLQLSSLTSEDTAVYYCNEGTPTGPYYFDYWGQGTTVTVSSGGGGSGGGGSGGGGSENVLTQSPAIVSASPGEKVTITCSASSSVSYMHWFQQKPGTSPKLVIYSTSNLASGVPARFSGSGSGTSYSLTISRMEAEDAATYYCQQRSSYPLTFGAGTKLELKRAATLVSEKQLAEVVANTITPLMKAQSVPGMAVAVIYQGKPHYYTFGKADIAANKPVTPQTLFELGSISKTFTGVLGGDAIARGEISLDDAVTRYWPQLTGKQWQGIRMLDLATYTAGGLPLQVPDEVTDNASLLRFYQNWQPQWKPGTTRLYANASIGLFGALAVKPSGMPYEQAMTTRVLKPLKLDHTWINVPKAEEAHYAWGYRDGKAVRVSPGMLDAQAYGVKTNVQDMANWVMANMAPENVADASLKQGIALAQSRYWRIGSMYQGLGWEMLNWPVEANTVVETSFGNVALAPLPVAEVNPPAPPVKASWVHKTGSTGGFGSYVAFIPEKQIGIVMLANTSYPNPARVEAAYHILEALQ
notes: Variant of the CAB1 scFv-BLA fusion built on NA05.6; Tested as crude lysate after thermolysin treatment; Positions are numbered along the whole CAB1 fusion (pME27)
B4: NA06.10 (scFv)
chain: QVKLQQSGAELVKSGGSVKLSCTASGFNIKDSYMHWVRQGPEQGLEWIGWIDPENGDTEYAPKFQGKATFTTDTSSNTAYLQLSSLTSEDTAVYYCNEGTPTGPYYFDYWGQGTTVTVSSGGGGSGGGGSGGGGSENVLTQSPAIVSASPGEKVTITCSASSSVSYMHWFQQKPGTSPKLVIYSTSNLASGVPDRFSGSGSGTSYSLTISRMEAEDAATYYCQQRSSYPLTFGAGTKLELKRAATLVSEKQLAEVVANTITPLMKAQSVPGMAVAVIYQGKPHYYTFGKADIAANKPVTPQTLFELGSISKTFTGVLGGDAIARGEISLDDAVTRYWPQLTGKQWQGIRMLDLATYTAGGLPLQVPDEVTDNASLLRFYQNWQPQWKPGTTRLYANASIGLFGALAVKPSGMPYEQAMTTRVLKPLKLDHTWINVPKAEEAHYAWGYRDGKAVRVSPGMLDAQAYGVKTNVQDMANWVMANMAPENVADASLKQGIALAQSRYWRIGSMYQGLGWEMLNWPVEANTVVETSFGNVALAPLPVAEVNPPAPPVKASWVHKTGSTGGFGSYVAFIPEKQIGIVMLANTSYPNPARVEAAYHILEALQ
notes: as for B3
B5: NA06.11 (scFv)
chain: QVQLQQSGAELVKSGGSVKLSCTASGFNIKDSYMHWVRQGPEQGLEWIGWIDPENGDTEYAPKFQGKATFTTDTSSNTAYLQLSSLTSEDTAVYYCNEGTPTGPYYFDYWGQGTTVTVSSGGGGSGGGGSGGGGSENVLTQSPAIMSASPGEKVTITCSASSSVSYMHWFQQKPGTSPKLVIYSTSNLASGVPDRFSGSGSGTSYSLTISRMEAEDAATYYCQQRSSYPLTFGAGTKLELKRAATLVSEKQLAEVVANTITPLMKAQSVPGMAVAVIYQGKPHYYTFGKADIAANKPVTPQTLFELGSISKTFTGVLGGDAIARGEISLDDAVTRYWPQLTGKQWQGIRMLDLATYTAGGLPLQVPDEVTDNASLLRFYQNWQPQWKPGTTRLYANASIGLFGALAVKPSGMPYEQAMTTRVLKPLKLDHTWINVPKAEEAHYAWGYRDGKAVRVSPGMLDAQAYGVKTNVQDMANWVMANMAPENVADASLKQGIALAQSRYWRIGSMYQGLGWEMLNWPVEANTVVETSFGNVALAPLPVAEVNPPAPPVKASWVHKTGSTGGFGSYVAFIPEKQIGIVMLANTSYPNPARVEAAYHILEALQ
notes: as for B3
B6: NA06.6 (scFv)
chain: QVQLQQSGAELVKSGGSVKLSCTASGFNIKDSYMHWVRQGPEQGLEWIGWIDPENGDTEYAPKFQGKATFTTDTSSNTAYLQLSSLTSEDTAVYYCNEGTPTGPYYFDYWGQGTTVTVSSGGGGSGGGGSGGGGSENVLTQSPAIVSASPGEKVTITCSASSSVSYMHWFQQKPGTSPKLVIYSTSNLASGVPARFSGSGSGTSYSLTISRMEAEDAATYYCQQRSSYPLTFGAGTKLELKRAATLVSEKQLAEVVANTITPLMKAQSVPGMAVAVIYQGKPHYYTFGKADIAANKPVTPQTLFELGSISKTFTGVLGGDAIARGEISLDDAVTRYWPQLTGKQWQGIRMLDLATYTAGGLPLQVPDEVTDNASLLRFYQNWQPQWKPGTTRLYANASIGLFGALAVKPSGMPYEQAMTTRVLKPLKLDHTWINVPKAEEAHYAWGYRDGKAVRVSPGMLDAQAYGVKTNVQDMANWVMANMAPENVADASLKQGIALAQSRYWRIGSMYQGLGWEMLNWPVEANTVVETSFGNVALAPLPVAEVNPPAPPVKASWVHKTGSTGGFGSYVAFIPEKQIGIVMLANTSYPNPARVEAAYHILEALQ
notes: as for B3
B7: NA06.2 (scFv)
chain: QVKLQQSGAELVKSGGSVKLSCTASGFNIKDSYMHWVRQGPGQGLEWIGWIDPENGDTEYAPKFQGKATFTTDTSSNTAYLQLSSLTSEDTAVYYCNEGTPTGPYYFDYWGQGTTVTVSSGGGGSGGGGSGGGGSENVLTQSPAIMSASPGEKVTITCSASSSVSYMHWFQQKPGTSPKLVIYSTSNLASGVPDRFSGSGSGTSYSLTISRMEAEDAATYYCQQRSSYPLTFGAGTKLELKRAATLVSEKQLAEVVANTITPLMKAQSVPGMAVAVIYQGKPHYYTFGKADIAANKPVTPQTLFELGSISKTFTGVLGGDAIARGEISLDDAVTRYWPQLTGKQWQGIRMLDLATYTAGGLPLQVPDEVTDNASLLRFYQNWQPQWKPGTTRLYANASIGLFGALAVKPSGMPYEQAMTTRVLKPLKLDHTWINVPKAEEAHYAWGYRDGKAVRVSPGMLDAQAYGVKTNVQDMANWVMANMAPENVADASLKQGIALAQSRYWRIGSMYQGLGWEMLNWPVEANTVVETSFGNVALAPLPVAEVNPPAPPVKASWVHKTGSTGGFGSYVAFIPEKQIGIVMLANTSYPNPARVEAAYHILEALQ
notes: as for B3
B8: NA06.12 (scFv)
chain: QVKLQQSGAELVKSGGSVKLSCTASGFNIKDSYMHWVRQGPEQGLEWIGWIDPENGDTEYAPKFQGKATFTTDTSSNTAYLQLSSLTSEDTAVYYCNEGTPTGPYYFDYWGQGTTVTVSSGGGGSGGGGSGGGGSQNVLTQSPAIMSASPGEKVTITCSASSSVSYMHWFQQKPGTSPKLVIYSTSNLASGVPARFSGSGSGTSYSLTISRMEAEDAATYYCQQRSSYPLTFGAGTKLELKRAATLVSEKQLAEVVANTITPLMKAQSVPGMAVAVIYQGKPHYYTFGKADIAANKPVTPQTLFELGSISKTFTGVLGGDAIARGEISLDDAVTRYWPQLTGKQWQGIRMLDLATYTAGGLPLQVPDEVTDNASLLRFYQNWQPQWKPGTTRLYANASIGLFGALAVKPSGMPYEQAMTTRVLKPLKLDHTWINVPKAEEAHYAWGYRDGKAVRVSPGMLDAQAYGVKTNVQDMANWVMANMAPENVADASLKQGIALAQSRYWRIGSMYQGLGWEMLNWPVEANTVVETSFGNVALAPLPVAEVNPPAPPVKASWVHKTGSTGGFGSYVAFIPEKQIGIVMLANTSYPNPARVEAAYHILEALQ
notes: as for B3

What follows are binders tested against T1, carcinoembryonic antigen (assay: plate assay: CEA coated on wells, culture lysate added, bound fusion read by BLA activity on nitrocefin).
B1: binds. B2: binds.

These binders were tested against T1, carcinoembryonic antigen (assay: CEA-coated plate assay on thermolysin-treated lysate, BLA/nitrocefin read-out).
B3: binds. B4: binds. B5: binds. B6: binds. B7: binds. B8: binds.

Reference: US20050084868A1 (published 2005)
